Results from patent publication US20220057411A1 (PERSEUS SCIENCE GROUP, published 2022).

Legend:
[1] = target: T1, full-length human Protein Kinase C, gamma isoform (PKCg), 63-73 kDa (human, UniProt P05129 1-697); assay: conclusion; clones came from ELISA/MAPIA screening against PKCg
T1 construct: also called PKCγ; full-length PKCg (63-73 kDa)

[2] = target: PKCg 42-48 kDa proteolytic fragment (human); assay: chemiluminescent capillary Western/ELISA on human plasma (stroke vs normal); signal at the ROC point
Description: (§1) The Sensitivity was calculated using (=SUM individual disease samples)/total of all disease samples). False Positives were calculated using the (=SUM each individual healthy sample/total of all healthy samples). Specificity is defined as (1-False Positives). This statistical method maximizes sensitivity and identifies the probability of false positives. The cut-off point for each ROC curve between healthy and disease samples was calculated and then related to the total chemiluminescence signal that is represented by those probabilities. The cut-off for each sample cohort stained with PKC11, PKC13, and PKC14 antibodies are represented by a line in each graph below.
(§2) Briefly, to conduct the chemiluminescent capillary ELISA in this example, reagents and individual plasma from Normal vs. TBI clinical samples were loaded into an automated Western blot machine (using the Auto-Western service from RayBiotech Life, Inc). In the first step, sample is loaded into the capillary automatically. Proteins are then separated by size as they electophoretically migrate through a stacking and separation matrix. The separated proteins are then immobilized on the capillary wall via a proprietary photoactivated capture chemistry. Target proteins, i.e., PKCg and/or PKCg proteolytic fragments were identified using a primary antibody, e.g., the rabbit monoclonal antibodies described herein, and immunoprobed with an HRP-conjugated secondary goat anti-rabbit IgG antibody and chemiluminescent substrate. An electropherogram is produced which plots the baseline, molecular weight and quantitative chemiluminescence signal of each peak. The quantitative signal was derived for each molecular weight band in every electropherogram. Each quantitative chemiluminescence signal was generated using the following formula; (C2-C1/C1), where C2 equals Area Under the Curve and C1 equals the baseline for that sample. This specific chemiluminescence measure was used in comparisons of all normal human plasma compared to TBI or stroke plasma samples after staining with antibodies, i.e., PKC11, PKC13, or PKC14. Statistical comparisons were made using GraphPad Prism 8 software. The resulting specific chemiluminescence signal was detected and quantitated, with sensitivity down in the picograms/ml range, providing a direct measure of TBI biomarkers, i.e., PKCg, and/or PKCg proteolytic fragments.

[3] = target: T2, PKCg 33-36 kDa proteolytic fragment (human); assay: as above
T2 construct: also called 32-36 kDa fragment
Description: as §1, §2

[4] = target: PKCg 53-60 kDa proteolytic fragment (human); assay: as above
Description: as §1, §2

[5] = target: PKCg 49-52 kDa proteolytic fragment (human); assay: chemiluminescent capillary Western/ELISA on human plasma; 49-52 kDa band; sample signal at ROC cut-off
Description: as §1
as §2, with “Target proteins, i.e., PKCg and/or PKCg proteolytic fragments were identified using a primary antibody, e.g., the rabbit monoclonal antibodies described herein, and immunoprobed with an HRP-conjugated secondary goat anti-rabbit IgG antibody and chemiluminescent substrate.” left out, “This specific chemiluminescence measure was used in comparisons of all normal human plasma compared to TBI or stroke plasma samples after staining with antibodies, i.e., PKC11, PKC13, or PKC14. Statistical comparisons were made using GraphPad Prism 8 software.” left out

[6] = target: PKCg 49-52 kDa proteolytic fragment (human); assay: chemiluminescent capillary Western/ELISA on human plasma; 49-52 kDa band; signal at ROC cut-off
Description: as §1
as §2, with “Target proteins, i.e., PKCg and/or PKCg proteolytic fragments were identified using a primary antibody, e.g., the rabbit monoclonal antibodies described herein, and immunoprobed with an HRP-conjugated secondary goat anti-rabbit IgG antibody and chemiluminescent substrate.” left out, “This specific chemiluminescence measure was used in comparisons of all normal human plasma compared to TBI or stroke plasma samples after staining with antibodies, i.e., PKC11, PKC13, or PKC14. Statistical comparisons were made using GraphPad Prism 8 software.” left out

[7] = target: PKCg 49-52 kDa proteolytic fragment (human); assay: chemiluminescent capillary Western/ELISA on human plasma; 49-52 kDa band; normal plasma sample
Description: as §1
Briefly, to conduct the chemiluminescent capillary ELISA in this example, reagents and individual plasma from Normal vs. TBI clinical samples were loaded into an automated Western blot machine (using the Auto-Western service from RayBiotech Life, Inc). In the first step, sample is loaded into the capillary automatically. […] An electropherogram is produced which plots the baseline, molecular weight and quantitative chemiluminescence signal of each peak. The quantitative signal was derived for each molecular weight band in every electropherogram. Each quantitative chemiluminescence signal was generated using the following formula; (C2-C1/C1), where C2 equals Area Under the Curve and C1 equals the baseline for that sample. […]

[8] = target: T1, full-length human Protein Kinase C, …; assay: chemiluminescent capillary Western/ELISA on human plasma (stroke vs normal); signal at the ROC point
Description: as §1, §2

[9] = target: higher molecular weight band at 95-105 kDa (human); assay: as above
Description: as §1, §2

| Binder | binding result [1] | Signal Chemiluminescence [2] | Signal Chemiluminescence [3] | Signal Chemiluminescence [4] | chemiluminescence signal (ROC cut-off, TBI) [5] | chemiluminescence signal (ROC cut-off, stroke) [6] | chemiluminescence signal (normal plasma sample, false positive) [7] | Signal Chemiluminescence [8] | Signal Chemiluminescence [9] |
| --- | --- | --- | --- | --- | --- | --- | --- | --- | --- |
| 20H1/20K3 rabbit anti-PKCg monoclonal antibody clone (antibody, V domains shown, Rabbit IgG heavy chain and kappa light chain; Entries as printed seem to include a leader; no cleavage site is stated) VH: QSVEESGGRLVTPGTPLTLTCTVSGIDLSSNAMNWVRQAPGKGLEWIGIIGFSGSTNYASWAKGRFTISKTSTTVDLKITSPTTEDTATYFCARGGLNIGMNLWGQGTLVTVSS VL: AQVLTQTPSPVSAAVGGTVPISCQSSQSVYDNNWLAWYQQKPGQPPKLLVYYASTLASGVPSRFKGSGSGTQFTLTINDLECDDAATYYCAGGYGDTNGGASSFGGGTEVVVK | binds |  |  |  |  |  |  |  |  |
| PKC13 (5H1/5K1) rabbit anti-PKCg monoclonal antibody (antibody, V domains shown, Rabbit IgG heavy chain and rabbit kappa light chain; Entries as printed seem to include a leader; no cleavage site is stated; also called mAb PKC13; PCK13) VH: QEQLKESGGGLVTPGGTLTLTCTVSGFSLSSYAMSWVRQAPGKGLEWIGIIISGGSAYYATWAKGRFTISKTSTTVDLSITSPTTEDTATYFCARAKSGTYTGDYFTLWGQGTLVTVSS VL: AFELTQTPASVEAAVGGTVTIKCQASESIGNALAWYQQKPGQPPKLLIYRASTLESGVPSRFKGSGSGTEFTLTISDLECADAATYYCQSYVGSRSTGYNVFGGGTEVVVK |  | 2210 chemiluminescence units | 319 chemiluminescence units | 3350 chemiluminescence units | 658 chemiluminescence units | 999 chemiluminescence units |  |  |  |
| PKC11 (1H1/1K1) rabbit anti-PKCg monoclonal antibody (antibody, V domains shown, Rabbit IgG heavy chain and rabbit kappa light chain; also called mAb PKC11) VH: QSVEESGGRLVTPGTPLALTCTVSGFSLNYYAMNWVRQAPVKGLEWIGVITSDTTYYASWAKGRFTISKTSTTVELQITSPTTEDTATYFCASGGSTTSPALWGQGTLVTVSS VL: AQVLTQTPSPVSAAVGSTVTINCQASQSVWSKNYLSWFQQKPGQPPKQLIYSASTLASGVPSRFSGSGSGTQFTLTISDVQCDDAATYYCLGSYDCRSADCWTFGGGTEVVVK |  | 637 chemiluminescence units | 126 chemiluminescence units | 1540 chemiluminescence units | 710 chemiluminescence units | 797 chemiluminescence units | 630 chemiluminescence units | 1770 chemiluminescence units |  |
| 4H1/4K1 rabbit anti-PKCg monoclonal antibody clone (antibody, V domains shown, Rabbit IgG heavy chain and kappa light chain; Entries as printed seem to include a leader; no cleavage site is stated) VH: QSVEESGGRLVTPGTPLTLTCTVSGFSLSLSRNAVSWVRQAPGKGLEWTGIIFGDAKTYYASWAKGRFTISKTATTVDLKITSLTTEDTATYFCVAGTGLWGQGTLVTVSS VL: AQVLTQTASPVSAAVGSTVTINCQASQSVYNKNRLSWYQQKPGQPPKRLIYSSSTLDSGVPLRFSGSGSGTQFTLTISGVQCDDAATYYCLGSYDCSSADCNAFGGGTEVVVK | binds |  |  |  |  |  |  |  |  |
| PKC14 (7H1/7K3) rabbit anti-PKCg monoclonal antibody (antibody, V domains shown, Rabbit IgG heavy chain and rabbit kappa light chain; Entries as printed seem to include a leader; no cleavage site is stated; also called mAb PKC14) VH: QSLEESGGDLVQPGASLTLTCTASGFTLTTYWICWVRQAPGKGLEWVACILTGSGSTYYASWVNGRFTISKTSSTTVTLQMTSLTAADTATYFCARYGGDATYNENLWGQGTLVTVSS VL: AQVLTQTPSSVSAAVGGTVTINCQASQSVYNNNRLSWYQQKPGQPPKRLIYGVSTLYYGVSSRFKGSGSGTQFTLTISGMQCDDAAIYYCLGGYDCASADCYAFGGGTEVVVK |  | 633 chemiluminescence units | 230 chemiluminescence units | 654 chemiluminescence units | 299 chemiluminescence units | 257 chemiluminescence units |  | 866 chemiluminescence units | 443 chemiluminescence units |
